In US20220162320A1 (published 2022):
Numbering of substitutions follows the chain as printed.

B1: scFv G10(1E12) (scFv, V domains shown)
VH: QVQLVQSGAEVKKPGASVKVSCKASGYIFTGYYMHWVRQAPGQGLEWMGMIGPSDGSTSYAQKFQGRVTMTRDTSTSTVYMELSSLRSEDTAVYYCAREDDSMDVWGKGTTVTVSS
VL: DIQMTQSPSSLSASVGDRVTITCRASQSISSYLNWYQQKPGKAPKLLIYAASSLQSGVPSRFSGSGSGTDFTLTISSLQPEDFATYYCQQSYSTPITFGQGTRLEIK
B2: scFv G8(5F02) (scFv, V domains shown)
VH: QVQLVQSGAEVKKPGASVKVSCKASGYTFTGYYIHWVRQAPGQGLEWMGVINPSGGSTTYAQKLQGRVTMTRDTSTSTVYMELSSLRSEDTAVYYCARDRDSSWTYYYYGMDVWGQGTTVTVSS
VL: EIVMTQSPATLSVSPGERATLSCRASQSVGNSLAWYQQKPGQAPRLLIYGASTRATGIPARFSGSGSGTEFTLTISSLQSEDFAVYYCQQYGSSPYTFGQGTKVEIK
B3: scFv G8(1A03) (scFv, V domains shown)
VH: QVQLVQSGAEVKKPGASVKVSCKASGGTFSRSAITWVRQAPGQGLEWMGWINPNSGATNYAQKFQGRVTMTRDTSTSTVYMELSSLRSEDTAVYYCARDDYGDYVAYFQHWGQGTLVTVSS
VL: DIQMTQSPSSLSASVGDRVTITCRASQSITSYLNWYQQKPGKAPKLLIYDASNLETGVPSRFSGSGSGTDFTLTISSLQPEDFATYYCQQNYNSVTFGQGTKLEIK
B4: scFv G10(4D04) (scFv, V domains shown)
VH: QVQLVQSGAEVKKPGASVKVSCKASGYTFTGYYVHWVRQAPGQGLEWMGIIAPSDGSTNYAQKFQGRVTMTRDTSTSTVYMELSSLRSEDTAVYYCARDPGGYMDVWGKGTTVTVSS
VL: B3 VL with T30S, N34A, N53K, N91S, N93G, S94V, V95P
B5: scFv G8(1H08) (scFv, V domains shown)
VH: QVQLVQSGAEVKKPGASVKVSCKASGYTFGNYFMHWVRQAPGQGLEWMGMVNPSGGSETFAQKFQGRVTMTRDTSTSTVYMELSSLRSEDTAVYYCAASTWIQPFDYWGQGTLVTVSS
VL: DIQMTQSPSSLSASVGDRVTITCRASQGINSYLAWYQQKPGKAPKLLIYDASNLETGVPSRFSGSGSGTDFTLTISSLQPEDFATYYCQQHNSYPPTFGQGTKLEIK
notes: also called G8-P1H08
B6: scFv G8(1C01) (scFv, V domains shown)
VH: QVQLVQSGAEVKKPGASVKVSCKASGGTFSSHAISWVRQAPGQGLEWMGVIIPSGGTSYTQKFQGRVTMTRDTSTSTVYMELSSLRSEDTAVYYCARGDYYDSSGYYFPVYFDYWGQGTLVTVSS
VL: B5 VL with G28N, N30Y, S31T, A34N, H91A, S93G, Y94F, P96L, Q100G, L104V
B7: scFv G10(2G11) (scFv, V domains shown)
VH: QVQLVQSGAEVKKPGASVKVSCKASGGTFSTHDINWVRQAPGQGLEWMGVINPSGGSAIYAQKFQGRVTMTRDTSTSTVYMELSSLRSEDTAVYYCARDRGYSYGYFDYWGQGTLVTVSS
VL: B5 VL with G28D, N30S, S31R, H91A, Y94F, P96R, L104V
B8: scFv G8(5G08) (scFv, V domains shown)
VH: QVQLVQSGAEVKKPGASVKVSCKASGYTFTSNYMHWVRQAPGQGLEWMGWMNPNSGNTGYAQKFQGRVTMTRDTSTSTVYMELSSLRSEDTAVYYCARGLYGDYFLYYGMDVWGQGTTVTVSS
VL: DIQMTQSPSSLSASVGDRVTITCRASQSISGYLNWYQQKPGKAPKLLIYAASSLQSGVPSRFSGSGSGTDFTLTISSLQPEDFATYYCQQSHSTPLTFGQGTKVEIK
B9: scFv G8(1A06) (scFv, V domains shown)
VH: QVQLVQSGAEVKKPGASVKVSCKASGYTFTNYYMHWVRQAPGQGLEWMGWMNPIGGGTGYAQKFQGRVTMTRDTSTSTVYMELSSLRSEDTAVYYCARVYDFWSVLSGFDIWGQGTLVTVSS
VL: DIQMTQSPSSLSASVGDRVTITCRASQAISNSLAWYQQKPGKAPKLLIYAASTLQSGVPSRFSGSGSGTDFTLTISSLQPEDFATYYCGQSYSTPPTFGQGTKLEIK
B10: scFv G10(1F06) (scFv, V domains shown)
VH: B1 VH with I28T, T30I, E99D, D100S, D101S, S102G, M103L, V105P, K108Q, T111L
VL: B9 VL with A28S, S32Y, A34N, A50K, T53S, Q55E, G89Q, S93I, T94I, P96Y
notes: also called G10(1F6)
B11: scFv G10(5A08) (scFv, V domains shown)
VH: QVQLVQSGAEVKKPGSSVKVSCKASGGTFNNFAISWVRQAPGQGLEWMGGIIPIFDATNYAQKFQGRVTFTADESTSTAYMELSSLRSEDTAVYYCARGEYSSGFFFVGWFDLWGRGTQVTVSS
VL: not shown
notes: also called G10(5A8); scFv-G10-P5A08
B12: scFv G10(2C04) (scFv, V domains shown)
VH: QVQLVQSGAEVKKPGASVKVSCKASGGTFSNSIINWVRQAPGQGLEWMGWMNPNSGNTNYAQKFQGRVTMTRDTSTSTVYMELSSLRSEDTAVYYCAREQWPSYWYFDLWGRGTLVTVSS
VL: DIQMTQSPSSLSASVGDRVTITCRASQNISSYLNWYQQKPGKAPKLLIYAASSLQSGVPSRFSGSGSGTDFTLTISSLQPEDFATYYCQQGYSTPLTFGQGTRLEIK
B13: scFv G10(5C08) (scFv, V domains shown)
VH: QVQLVQSGAEVKKPGASVKVSCKASGYNFTGYYMHWVRQAPGQGLEWMGIIAPSDGSTNYAQKFQGRVTMTRDTSTSTVYMELSSLRSEDTAVYYCARETGDDAFDIWGQGTMVTVSS
VL: not shown
B14: scFv G10(3E04) (scFv, V domains shown)
VH: QVQLVQSGAEVKKPGASVKVSCKASGNTFIGYYVHWVRQAPGQGLEWVGIINPNGGSISYAQKFQGRVTMTRDTSTSTVYMELSSLRSEDTAVYYCARGSGDPNYYYYYGLDVWGQGTTVTVSS
VL: DIQMTQSPSSLSASVGDRVTITCQASQDISNYLNWYQQKPGKAPKLLIYAASNLQSGVPSRFSGSGSGTDFTLTISSLQPEDFATYYCQQANSLPYTFGQGTKVEIK
B15: scFv G8(2B05) (scFv, V domains shown)
VH: EVQLLESGGGLVQPGGSLRLSCAASGFDFSIYSMNWVRQAPGKGLEWVSAISGSGGSTYYADSVKGRFTISRDNSKNTLYLQMNSLRAEDTAVYYCASNGNYYGSGSYYNYWGQGTLVTVSS
VL: DIQMTQSPSSLSASVGDRVTITCRASQSISRWLAWYQQKPGKAPKLLIYAASSLQSGVPSRFSGSGSGTDFTLTISSLQPEDFATYYCQQYSTYPITIGQGTKVEIK
B16: scFv G8(1A04) (scFv, V domains shown)
VH: QVQLVQSGAEVKKPGASVKVSCKASGYPFIGQYLHWVRQAPGQGLEWMGIINPSGDSATYAQKFQGRVTMTRDTSTSTVYMELSSLRSEDTAVYYCARDLSYYYGMDVWGQGTTVTVSS
VL: DIQMTQSPSSLSASVGDRVTITCWASQGISSYLAWYQQKPGKAPKLLIYAASSLQSGVPSRFSGSGSGTDFTLTISSLQPEDFATYYCQQSYNTPWTFGPGTKVDIK
B17: scFv G8(1D02) (scFv, V domains shown)
VH: EVQLLESGGGLVQPGGSLRLSCAASGFTFSSYWMSWVRQAPGKGLEWVSSISGRGDNTYYADSVKGRFTISRDNSKNTLYLQMNSLRAEDTAVYYCARASGSGYYYYYGMDVWGQGTTVTVSS
VL: B14 VL with N53S, A91S, N92Y, L94A, Q100G
B18: scFv G10(1A07) (scFv, V domains shown)
VH: EVQLLESGGGLVKPGGSLRLSCAASGFTFSSYWMSWVRQAPGKGLEWVSGISARSGRTYYADSVKGRFTISRDDSKNTLYLQMNSLKTEDTAVYYCARDQDTIFGVVITWFDPWGQGTLVTVSS
VL: B9 VL with A28G, S32Y, T53S, S56G, G89Q, S91Y, Y92F, S93T, P96Y
B19: scFv G10(1H01) (scFv, V domains shown)
VH: B1 VH with I28T, E99G, D100V, D101G, S102N, M103L, V105Y, K108Q, T111L
VL: B14 VL with Q24R, D28S, N53S, Q89H, A91T, N92Y, L94T, Y96L
B20: scFv G8(4F05) (scFv, V domains shown)
VH: B8 VH with T30S, S31N, N32M, M34L, M51I, S55T, N57D, G59N, K63T, T118K
VL: B9 VL with A28G, S32Y, G89Q, P96L, Q100G, L104V
B21: scFv G8(2E06) (scFv, V domains shown)
VH: QVQLVQSGAEVKKPGASVKVSCKASGYTLTTYYMHWVRQAPGQGLEWMGWINPNSGGTNYAQKFQGRVTMTRDTSTSTVYMELSSLRSEDTAVYYCARAVYYDFWSGPFDYWGQGTLVTVSS
VL: B9 VL with A28G, T53S, G89Q, S91A, Y92N, T94F, P96W
B22: scFv G8(1B03) (scFv, V domains shown)
VH: EVQLLESGGGLVQPGGSLRLSCAASGFTFSDYYMSWVRQAPGKGLEWVSGINWNGGSTGYADSVKGRFTISRDNSKNTLYLQMNSLRAEDTAVYYCARVEQGYDIYYYYYMDVWGKGTTVTVSS
VL: B16 VL with W24R, G28S, A34N, A50K, Q55E, N93S, T94A, W96Y
B23: scFv G8(5C03) (scFv, V domains shown)
VH: QVQLVQSGAEVKKPGASVKVSCKASGYTFTSYYMHWVRQAPGQGLEWMGWMNPNSGNTGYAQKFQGRVTMTRDTSTSTVYMELSSLRSEDTAVYYCARGLLGFGEFLTYGMDVWGQGTLVTVSS
VL: B9 VL with A28G, S32W, G89Q, S91T, P96W
B24: scFv G10(4D10) (scFv, V domains shown)
VH: B1 VH with I28T, M34L, E99D, D100G, S102A, M103F, V105I, K108Q, T111M
VL: B5 VL with N30S, Y32W, H91S, N92Y, Y94T, P96L, Q100G, L104V

Columns and labels:
[1] = target: HLA-A*02:01 (alpha chain with beta-2 microglobulin), recombinant (human); experiment: conditional ligand exchange, stability ELISA
[2] = target: HLA-PEPTIDE target G10: HLA-A*01:01_…, recombinant soluble complex (human, enzymatically biotinylated (BirA)); experiment: phage display, scFv ELISA on pHLA against negative control pHLAs
[3] = target: HLA-PEPTIDE target G8: HLA-A*02:01_…, recombinant soluble complex (human, enzymatically biotinylated (BirA) for screening and BLI); experiment: as above

Row | Binder | binding result [2] | binding result [3] | other results
1 | LLASSILCA (also called G7 peptide) [peptide LLASSILCA] | – | – | binding result [1]: binds
2 | B1 | binds | – | –
3 | B2 | – | binds | –
4 | B3 | – | binds | –
5 | B4 | binds | – | –
6 | B5 | – | binds | –
7 | B6 | – | binds | –
8 | B7 | binds | – | –
9 | B8 | – | binds | –
10 | B9 | – | binds | –
11 | B10 | binds | – | –
12 | B11 | binds | – | –
13 | B12 | binds | – | –
14 | B13 | binds | – | –
15 | B14 | binds | – | –
16 | B15 | – | binds | –
17 | B16 | – | binds | –
18 | B17 | – | binds | –
19 | B18 | binds | – | –
20 | B19 | binds | – | –
21 | B20 | – | binds | –
22 | B21 | – | binds | –
23 | B22 | – | binds | –
24 | B23 | – | binds | –
25 | B24 | binds | – | –
